Assay results taken from the supplement of paper PMC9170038.

System: MS2 coat protein
Assay: apparent KD of MS2 coat protein; higher = weaker reporter binding
Settings: Eterna round: R107; input ligand: arginine 13.2 mM
Summary of the method: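 Designed RNA switches were transcribed on-chip from Illumina sequencing clusters and titrated with SNAP-549-labelled MS2 coat protein in twofold steps from 0.7 or 1.5 nM up to 3 µM. Each step lasted 0.8–1.5 h at first and 10–20 min by the end, in 100 mM Tris-HCl pH 7.5, 80 mM KCl and 4 mM MgCl2, without or with constant ligand. Apparent KD is the median, for each design, of fits to normalised cluster binding curves.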

Going from “AUACAUGAGGAUCACCCAUGUUACACUGAAGGAGCGACAUGUUUGUCAGGUAGGUCGCAGUGAAGUUUAAUAAUUCUUUGAUCUU [#06 Same State - Arginine A]” to “CCGUCACAUGAGGAUCACCCAUGUGCGGAAGGAGCGGACGAUAGUCCAGGUAGGUCGCCGUAUAGCCAAUGACCAGCAGUGUCGG [XARG-A 22]”, the “apparent KD of MS2 coat protein” value falls from 22.4 nM to 12.4 nM (1.8-fold).

Same assay, conditions: Eterna round: R107; input ligand: none

First: GGGUACAUCGCGGCCGCCACUCAUGUAAAUGCGUGAGGAUCACCCAUGCCGAUGGAGACAUCGGAGAGGACCGGGUGAUGUACCG
Second: AAAGGAAGGUAAAAUAAAACUACAUGUGAAGGAGCGCCCGAAAGGGCAGGUAGGUCGCACAUGAGGAUCACCCAUGUCCUUCCAA [ArgEX 6 #SwitchBubble]
The “apparent KD of MS2 coat protein” value of the first is 8.3-fold lower: 38.5 nM for the first, 319 nM for the second.

First: ACAUGAGGAUCACCCAUGUACAUCACCCGACGAGGACCGGUACGGCCGCCACUCGGGUAUAUAUAUACAUCGGGUGAUUUUGCAU [#21 Tryptophan A Same State]
Second: AUACAUGAGGAUCACCCAUGUAAAGUUGAAGGAGCGACCAGAGGGUCAGGUAGGUCGCAACACAUGAGGAUCACCCAUGUAUCGA [DOUBLE!!! :-D #6]
The “apparent KD of MS2 coat protein” value of the first is 4-fold lower: 20.9 nM for the first, 83.6 nM for the second.

“UACAUGAGGAUCACCCAUGUCUGAACUGAAGGAGCGCUAAACAAGGCAGGUAGGUCGCGGAAUUUUGUGUGCAUAUGCAUAUGGG [9.K]” and “AUUAUAGUUUAUAAGGAAAUUGAAACAGAAGGAGCGUGAGUAAUCACAGGUAGGUCGCUGGUAGUACAUGAGGAUCACCCAUGUU [JR_Nu_SSArginiA_Sub019]” are within 1.5-fold of each other in “apparent KD of MS2 coat protein” value: 30.6 nM for the first, 24.1 nM for the second.

Compared with “UGUACCAUGUCGGCCGCCACUCAUGAUAAGCAUGAGGAUCACCCAUGUAGCGUCAAAGACGCUAUGAGGACCGGGACAUGGUACU [TryBS Zipper 2]”, “UGAGGGACCAGAAGGAGCGACAUGAGGAUCACCCAUGUCUCCCGUUAUGGGAGUUCUUUAGGUCAGGUAGGUCGCUGGUCCCUCA [#1 Exclusion - Arginine B Attempt #7 (Inspired by Omei)]” is 2.2-fold higher in “apparent KD of MS2 coat protein” value: 34.7 nM for the first, 77.9 nM for the second.

Going from “UGGUACAUGGCGGCCGCCACUUCACGUAAAAUAAAAACGUGAGGAUCACCCACGUAAUAAGUUGGGAGGACCGGGUCAUGUACCU” to “UCGCGAGAGGGAAGGAGCGUCAGCUGAGUCACAUGAGGAUCACCCAUGUCGCACAUAGUGUGACAGGUAGGUCGCCCUCCGCCCU [Leinticees]”, the “apparent KD of MS2 coat protein” value falls from 321 nM to 134 nM (2.4-fold).

First: GAAGGAGUUAUGGGUACUCCUUCACUGGAAGGAGCGAGCGAAAGCUCAGGUAGGUCGCCAGAAACAUGAGGAUCACCCAUGUAAU [(A)''-(M)'-(A)'-(Arg1)-(Arg2)-(M1)-(M2)_Design6]
Second: UUUAAGAACCGAAGGAGCGCCAGAAAUAAGAACGCUACAUGAGGAUCACCCAUGUAAUAAGGGCAGGUAGGUCGCGGAAUUUAAA [last]
The “apparent KD of MS2 coat protein” value of the first is 2.2-fold higher: 45.7 nM for the first, 21.2 nM for the second.

Going from “UCUUGAGUUUCGGAUACCAGUGAUGUCGAUACAUGAGGAUCACCCAUGUUAGAGGAUGUACACCCUUGGCAGCCGGGUGUGGCGG [wswmullin]” to “UGUACUAUGUGAAGGAGCGAGAAGGAGCGAACAUGAGGAUCACCCAUGUACAGGUAGGUCGCUCAGGUAGGUCGCACAUAGUACU [ArgBS - Double aptamer]”, the “apparent KD of MS2 coat protein” value falls from 36 nM to 9.94 nM (3.6-fold).

Compared with “ACACAUGAGGAUCACCCAUGUGCCCAUGAAGGAGCGUGGGAAACCACAGGUAGGUCGCAUGACAUGAGGAUCACCCAUGUUUAUU [Astarte]”, “AUACAUGAGGAUCACCCAUGUUACACUGAAGGAGCGACAUGUUUGUCAGGUAGGUCGCAGUGAAGUUUAAUAAUUCUUUGAUCUU [#06 Same State - Arginine A]” is 1.7-fold lower in “apparent KD of MS2 coat protein” value: 41.9 nM for the first, 24 nM for the second.

With “CCGUCACAUGAGGAUCACCCAUGUGCGGAAGGAGCGGACGAUAGUCCAGGUAGGUCGCCGUAUAGCCAAUGACCAGCAGUGUCGG [XARG-A 22]” the “apparent KD of MS2 coat protein” value was 13.9 nM.

Same assay, conditions: Eterna round: R107; input ligand: theophylline 20 uM

Compared with “UUGCUCUCUUCGGCCGCCACUACACGCGAGUUGACGACUGGCGGACAUGAGGAUCACCCAUGUCAUAGGACCGGGAAUCACGCUG [theeternabot_sameState_MS2_Trp_B_11]”, “GGGUACAUCGCGGCCGCCACUCAUGUAAAUGCGUGAGGAUCACCCAUGCCGAUGGAGACAUCGGAGAGGACCGGGUGAUGUACCG” is 2.5-fold higher in “apparent KD of MS2 coat protein” value: 15.9 nM for the first, 40 nM for the second.

First: AAAGGAAGGUAAAAUAAAACUACAUGUGAAGGAGCGCCCGAAAGGGCAGGUAGGUCGCACAUGAGGAUCACCCAUGUCCUUCCAA [ArgEX 6 #SwitchBubble]
Second: ACAUGAGGAUCACCCAUGUACAUCACCCGACGAGGACCGGUACGGCCGCCACUCGGGUAUAUAUAUACAUCGGGUGAUUUUGCAU [#21 Tryptophan A Same State]
The “apparent KD of MS2 coat protein” value of the first is 2.9-fold higher: 315 nM for the first, 108 nM for the second.

First: GGUACAUGAGGAUCACCCAUGUAUUGGUACCGAGGACCGGUACGGCCGCCACUCGCAUGACAUGAGGAUCACCCAUGUGAAACCU [SSTA DOUBLE!!! :-D #12]
Second: CUCGGGUUAUCAGAUACCAGACUAAAAUUUACAUGAGGAUCACCCAUGUAAUGGGUGAUAGUCCCUUGGCAGCUGUUAUGUUUAA [JR_ExcTheophyB_Sub001]
The “apparent KD of MS2 coat protein” value of the first is 1.7-fold lower: 51.6 nM for the first, 85.4 nM for the second.

Going from “AUACAUGAGGAUCACCCAUGUAAAGUUGAAGGAGCGACCAGAGGGUCAGGUAGGUCGCAACACAUGAGGAUCACCCAUGUAUCGA [DOUBLE!!! :-D #6]” to “UACAUGAGGAUCACCCAUGUCUGAACUGAAGGAGCGCUAAACAAGGCAGGUAGGUCGCGGAAUUUUGUGUGCAUAUGCAUAUGGG [9.K]”, the “apparent KD of MS2 coat protein” value falls from 78.4 nM to 46.7 nM (1.7-fold).

Compared with “AUUAUAGUUUAUAAGGAAAUUGAAACAGAAGGAGCGUGAGUAAUCACAGGUAGGUCGCUGGUAGUACAUGAGGAUCACCCAUGUU [JR_Nu_SSArginiA_Sub019]”, “AGCGCGGUGAUGGUAGCCGGACGCUAGGUACGAGGACCGGUACGGCCGCCACUCGGAGUCCUACGACAUGAGGAUCACCCAUGUA [Same State Trp A GF16]” is 3.3-fold higher in “apparent KD of MS2 coat protein” value: 32.2 nM for the first, 106 nM for the second.

“UGUACCAUGUCGGCCGCCACUCAUGAUAAGCAUGAGGAUCACCCAUGUAGCGUCAAAGACGCUAUGAGGACCGGGACAUGGUACU [TryBS Zipper 2]” and “AAUAUAUAGACGGCCGCCACUGGAACCAAUACAUGAGGAUCACCCAUGUGAAAAGGAUAGGUUCACAGGACCGGGUCUUCAUGUA [SS Tryp B Tesla 1.3]” are within 1.5-fold of each other in “apparent KD of MS2 coat protein” value: 47.1 nM for the first, 33.1 nM for the second.

Compared with “GAUUAAACAUGAGGAUCACCCAUGUAUAUACGAGGACCGGUACGGCCGCCACUCGAAAACGAGUAUCCUCGAAUAAACAUGAUAA [AK 2 SS Trypt (A)]”, “UGAGGGACCAGAAGGAGCGACAUGAGGAUCACCCAUGUCUCCCGUUAUGGGAGUUCUUUAGGUCAGGUAGGUCGCUGGUCCCUCA [#1 Exclusion - Arginine B Attempt #7 (Inspired by Omei)]” is 5.3-fold higher in “apparent KD of MS2 coat protein” value: 48.3 nM for the first, 256 nM for the second.

First: UGGUACAUGGCGGCCGCCACUUCACGUAAAAUAAAAACGUGAGGAUCACCCACGUAAUAAGUUGGGAGGACCGGGUCAUGUACCU
Second: ACGACAUGAGGAUCACCCAUGUAAGGUGAUACCAGACGAAGUAAUGUCCCUUGGCAGCACAAGCAUAGUUGCGAUUAUUGUACGA [JR_SSTheophyA_Sub006]
The “apparent KD of MS2 coat protein” value of the first is 1.7-fold lower: 344 nM for the first, 574 nM for the second.

Compared with “UCGCGAGAGGGAAGGAGCGUCAGCUGAGUCACAUGAGGAUCACCCAUGUCGCACAUAGUGUGACAGGUAGGUCGCCCUCCGCCCU [Leinticees]”, “AUAACAUGAGGAUCACCCAUGUAGAGUGAUACCAGACUAUGUAAUGUCCCUUGGCAGCACAAGUAAAGUUAUAAAUAAUGAUAGA [JR_SSTheophyA_Sub001]” is 2-fold lower in “apparent KD of MS2 coat protein” value: 248 nM for the first, 126 nM for the second.
